Consider one substance from publication PMC10273338.

The assay concerns the target BAG3 (Bcl-2 associated athanogene protein 3) (human) (UniProt O95817). Put plainly: SPR; BIACORE X; BAG3 amine-coupled to a CM5 chip (3400 RU); running buffer 10 mM HEPES pH 7.4, 150 mM NaCl, 3 mM EDTA, 0.005% P20; 10 uL/min; Langmuir 1:1 fit.

Sequence of BAG3 (Bcl-2 associated athanogene protein 3), O95817 1-575 (natural protein; other documents disagree on this pair) (O95817 whole entry): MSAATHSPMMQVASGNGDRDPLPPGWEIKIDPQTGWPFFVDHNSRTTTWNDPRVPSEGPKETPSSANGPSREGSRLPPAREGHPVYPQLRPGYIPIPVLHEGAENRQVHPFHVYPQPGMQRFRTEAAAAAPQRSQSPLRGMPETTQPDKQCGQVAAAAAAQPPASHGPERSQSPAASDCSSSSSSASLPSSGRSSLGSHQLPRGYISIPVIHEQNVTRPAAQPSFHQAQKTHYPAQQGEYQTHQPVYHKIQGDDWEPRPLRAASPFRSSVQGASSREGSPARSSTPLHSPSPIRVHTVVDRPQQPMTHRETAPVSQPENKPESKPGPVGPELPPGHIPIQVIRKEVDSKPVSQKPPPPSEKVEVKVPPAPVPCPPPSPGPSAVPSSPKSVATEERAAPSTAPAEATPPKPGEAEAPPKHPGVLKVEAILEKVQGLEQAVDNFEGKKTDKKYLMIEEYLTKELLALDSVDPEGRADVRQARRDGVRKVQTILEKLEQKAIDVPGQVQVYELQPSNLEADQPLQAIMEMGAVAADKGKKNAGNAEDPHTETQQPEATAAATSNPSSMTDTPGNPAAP

On to “BAG3 (Bcl-2 associated athanogene protein 3), O95817 1-575 (natural protein; other documents disagree on this pair)”, for which the Ka amounted to 5.3e+07 M⁻¹, the Kd came out at 19 nM, the koff was 0.0003 s⁻¹ and the kon was 16000 M⁻¹ s⁻¹.
